The values that follow come from US20250115671A1 (BEIGENE, published 2025).

The target in experiment [1] is T1, human CCR8 (human, UniProt P51685 1-355). Kind of experiment: cell-based or functional assay.
Experiment [2] deals with T1, human CCR8. Description: flow cytometry, Jurkat/huCCR8 cells, Test2. How it is done: (§1) To evaluate the binding activities of anti-CCR8 antibodies to bind native CCR8 on live cells, Jurkat cells (ATCC TIB-15) were engineered to over-express human CCR8. Live Jurkat/huCCR8 cells were seeded in 96-well plate, and were incubated with a series of dilutions of anti-CCR8 antibodies. Alexa Fluor® 647 anti-Human IgG Fc Antibody (Biolegend cat: 410714) was used as a secondary antibody to detect antibody binding to CCR8 expressed on the cell surface. EC50 values for dose-dependent binding to human native CCR8 were determined by fitting the dose-response data to the four-parameter logistic model with GraphPad Prism.

The target of experiment [3] is T1, human CCR8. Kind of experiment: flow cytometry, stimulated human primary Treg cells (high CCR8). How it is done:
Treg binding of the humanized antibodies was measured on Treg cells from human PBMC. Briefly, CD25+ cells were isolated from human PBMC. The cells were stimulated with IL-2, TGFβ and anti-CD3/CD28 beads for high CCR8-expression level Treg cells. Next, Treg cells were seeded in 96-well plate and incubated with a series of dilutions of anti-CCR8 antibodies. Goat anti-human IgG was used as secondary antibody to detect antibody binding to the cell surface. EC50 values for dose-dependent binding to human CCR8 were determined by fitting the dose-response data to the four-parameter logistic model with GraphPad Prism. As shown in FIG. 6A and Table 12 the hu305-5W-3a had the highest binding affinity to CCR8 on Treg cells of the humanized antibodies. As noted in Table 12 and FIG. 6A below, the hu305-5W-3a antibody also had the lowest IC50 regarding reducing ligand-receptor interaction.
A general note: A flow cytometer gives signals particle by particle.

The target of a further experiment is T2, Cynomolgus Monkey CCR8 (cynomolgus monkey, UniProt O97665 1-356 (rhesus entry)).
T2 construct: also called cyno CCR8; cynoCCR8
T2 sequence (O97665 other isoform, or with tags, fused parts or gaps): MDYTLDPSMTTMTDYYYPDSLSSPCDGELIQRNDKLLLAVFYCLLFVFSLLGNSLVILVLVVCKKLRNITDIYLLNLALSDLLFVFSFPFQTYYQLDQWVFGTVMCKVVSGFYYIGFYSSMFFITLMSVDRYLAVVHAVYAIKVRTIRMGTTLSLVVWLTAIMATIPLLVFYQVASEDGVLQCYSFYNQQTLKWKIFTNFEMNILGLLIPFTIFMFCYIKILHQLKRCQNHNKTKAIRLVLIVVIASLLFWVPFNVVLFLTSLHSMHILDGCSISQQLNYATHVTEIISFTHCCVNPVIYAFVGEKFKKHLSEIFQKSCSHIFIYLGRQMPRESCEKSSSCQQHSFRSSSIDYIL
Kind of experiment: flow cytometry, 293T-cynoCCR8 cells. How it is done:
Goat anti-human IgG was used as secondary antibody to detect antibody binding to the cell surface. EC50 values for dose-dependent binding to cyno CCR8 were determined by fitting the dose-response data to the four-parameter logistic model with GraphPad Prism.

The target of experiment [4] is T1, human CCR8. Kind of experiment: cell-based or functional assay. The source holds these as a separate data set.
In experiment [5] the target is T1, human CCR8. Description: flow cytometry, Jurkat/huCCR8 cells, Test1. How it is done: as §1

T1 sequence (P51685 whole entry): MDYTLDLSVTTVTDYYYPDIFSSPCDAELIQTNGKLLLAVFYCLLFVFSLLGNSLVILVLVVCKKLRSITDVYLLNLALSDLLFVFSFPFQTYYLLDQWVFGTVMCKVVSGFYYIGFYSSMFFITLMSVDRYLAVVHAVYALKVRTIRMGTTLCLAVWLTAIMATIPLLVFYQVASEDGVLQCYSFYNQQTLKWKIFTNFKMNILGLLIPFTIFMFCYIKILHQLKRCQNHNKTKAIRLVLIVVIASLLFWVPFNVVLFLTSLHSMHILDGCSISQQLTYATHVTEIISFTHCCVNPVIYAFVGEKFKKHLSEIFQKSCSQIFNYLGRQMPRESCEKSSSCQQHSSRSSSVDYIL

B1: hu305-5W-3a-AF (antibody, V domains shown)
VH: QVQLKQSGPGLVKPSETLSLTCTVSGFSLAVYGVHWVRQPPGKGLEWLGVIWRGGTTDYNPSLKSRLTFSKDSSKSQVSLKLSSVTAADTAVYYCAKNRVTTVVAPNFYAMDYWGQGTLVTVSS
VL: DIVMTQSPDSLAVSLGERATINCKSSQSLLYSGNQKNYLAWYQQKPGQPPKLLIYWASTRKSGVPDRFSGSGSGTDFTLTISSLKAEDVAVYYCQQYYTYPLTFGQGTRLEIK
notes: also called afucosylated hu305-5W-3a
For B1, in the experiment with human CCR8 [1], the “EC50 (nM), NK cell mediated cytotoxicity (ADCC) on CCR8-expressing Treg” value (“EC50 (nM), NK cell mediated cytotoxicity” below) was 0.059 nM and the “Emax (%), NK cell mediated cytotoxicity (ADCC) on CCR8-expressing Treg” value (from here on “Emax (%), NK cell mediated cytotoxicity”) is 75.5%. For the same molecule, in the experiment with human CCR8 [2], the EC50 – broadly, the concentration that produces a half-maximal response – was 2.98 nM and the Emax was determined as 16700 MFI. In the experiment with human CCR8 [3], this molecule came in with an EC50 of 47.6 nM and an Emax of 2030 RLU. In the experiment with Cynomolgus Monkey CCR8, this molecule registered an EC50 of 12.5 nM and an Emax of 12400 RLU. Further, in the experiment with human CCR8 [4], the “IC50(nM), blocking activity” value came out at 1.82 nM and the “Imax(%), blocking activity” value came to 87.3%.

B2: hu305-4F-2m-AF (antibody, V domains shown)
VH: QVQLQESGPGLVKPSQTLSLTCTVSGFSLAVYGVHWVRQPPGKGLEWLGVIWRGGTTDYNPSLKSRLTFSKDSSKSQVSLKLSSVTAADTAVYYCAKNRVTTVVAPNFYAMDYWGQGTLVTVSS
VL: DIVMTQSPDSLAVSLGERVTINCKSSQSLLYSGNQKNYLAWYQQKPGQSPKLLIYWASTRKSGVPDRFSGSGSGTDFTLTISSLQAEDVAAYYCQQYYTYPLTFGQGTRLEIK
B2: in the experiment with human CCR8 [1], the “EC50 (nM), NK cell mediated cytotoxicity” value came to 0.585 nM and the “Emax (%), NK cell mediated cytotoxicity” value was determined as 70.9%. Further, in the experiment with human CCR8 [3], the midpoint of the response, the EC50, lay at 136 nM and the Emax came to 1860 RLU. In addition, in the experiment with human CCR8 [5], the EC50 came out at 5.83 nM and the Emax was found to be 22900 MFI. In the experiment with Cynomolgus Monkey CCR8, this molecule registered an EC50 of 16.6 nM and an Emax of 12300 RLU. In addition, in the experiment with human CCR8 [4], the “IC50(nM), blocking activity” value came out at 13.1 nM and the “Imax(%), blocking activity” value was 75.6%.

B3: hu305-4F-2l-AF (antibody, V domains shown)
VH: QVQLQESGPGLVKPSQTLSLTCTVSGFSLAVYGVHWVRQPPGKGLEWLGVIWRGGTTDYNPSLKSRLTFSKDSSKSQVSLKLSSVTAADTAVYYCAKNRVTTVVAPNFYAMDYWGQGTLVTVSS
VL: DIVMTQSPDSLAVSLGERVTMNCKSSQSLLYSGNQKNYLAWYQQKPGQSPKLLIYWASTRKSGVPDRFSGSGSGTDFTLTISSLQAEDVAAYYCQQYYTYPLTFGQGTRLEIK
notes: also called hu305-4F-21-AF; hu305-4F-21
B3: in the experiment with human CCR8 [1], the “EC50 (nM), NK cell mediated cytotoxicity” value came to 0.396 nM and the “Emax (%), NK cell mediated cytotoxicity” value was 72.3%. In the experiment with human CCR8 [3], this molecule gave an EC50 of 117 nM and an Emax of 1760 RLU. In the experiment with human CCR8 [5], this molecule gave an EC50 of 6.01 nM and an Emax of 23500 MFI. In the experiment with Cynomolgus Monkey CCR8, this molecule yielded an EC50 of 16.7 nM and an Emax of 12500 RLU. Moreover, in the experiment with human CCR8 [4], the “IC50(nM), blocking activity” value stood at 6.19 nM and the “Imax(%), blocking activity” value came out at 78%.

B4: hu305-5P-3a-AF (antibody, V domains shown)
VH: QVQLKQSGPGLVKPSETLSLTCTVSGFSLTSYGVHWVRQPPGKGLEWLGVIWRGGTTDYNPSLKSRVTFSKDSSKNQVSLKLSSVTAADTAVYYCAKNRVTTVVAPNFYAMDYWGQGTLVTVSS
VL: DIVMTQSPDSLAVSLGERATINCKSSQSLLYSGNQKNYLAWYQQKPGQPPKLLIYWASTRKSGVPDRFSGSGSGTDFTLTISSLKAEDVAVYYCQQYYTYPLTFGQGTRLEIK
Consider B4, for which, in the experiment with human CCR8 [1], the “EC50 (nM), NK cell mediated cytotoxicity” value is 0.077 nM and the “Emax (%), NK cell mediated cytotoxicity” value is 73.7%. In the experiment with human CCR8 [2], this molecule came in with an EC50 of 2.99 nM and an Emax of 17500 MFI. In the experiment with human CCR8 [3], this molecule registered an EC50 of 35.2 nM and an Emax of 1720 RLU. Also, in the experiment with Cynomolgus Monkey CCR8, the EC50 was determined as 9.83 nM and the Emax is 12600 RLU. Besides, in the experiment with human CCR8 [4], the “IC50(nM), blocking activity” value worked out at 10.5 nM and the “Imax(%), blocking activity” value is 77.1%.
